Laboratory results published in patent US20120316071A1.
Blank lines part the entries; values can stand above or below the substance they belong to.

Tests used:
[1] = target: rHuman Notch-1/Fc Chimera, CF (R&D Systems Cat#3647-TK) (human) (UniProt P46531); test: ECL (MSD) multispot binding assay, antigen spotted on plate, 20 nM Fab
[2] = target: rHuman CD44/Fc Chimera, CF (R&D Systems Cat#3660-CD) (human) (UniProt P16070); test: ECL multispot (MSD) assay, antigen spotted on plate, 20 nM Fab
[3] = target: rHuman EGF R/Fc Chimera, CF (R&D Systems Cat#344-ER) (human) (UniProt P00533); test: as above
[4] = target: rHuman IGF-1 sR, CF (R&D Systems Cat#391-GR) (human) (UniProt P08069); test: as above
[5] = target: rHuman Notch-1/Fc Chimera, CF (R&D Systems Cat#3647-TK) (human) (UniProt P46531); test: as above
[6] = target: Recombinant Human DLL4 (R&D Systems Cat#1506-D4/CF) (human) (UniProt Q9NR61); test: ECL (MSD) multispot binding assay, antigen spotted on plate, Fab in solution
[7] = target: rHuman Erythropoietin R/Fc Chimera, CF (R&D Systems Cat#963-ER) (human) (UniProt P19235); test: ECL multispot (MSD) assay, antigen spotted on plate, 10 nM Fab
[8] = target: rHuman Erythropoietin R/Fc Chimera, CF (R&D Systems Cat#963-ER) (human) (UniProt P19235); test: Multispot ECL (MSD) assay, antigen spotted on plate, Fab at 42.112 nM; blank spot 323
[9] = target: rHuman Erythropoietin R/Fc Chimera, CF (R&D Systems Cat#963-ER) (human) (UniProt P19235); test: Multispot ECL (MSD) assay, antigen spotted on plate, Fab at 421.12 nM; blank spot 639
[10] = target: rHuman IGF-1 sR, (IGF-1 sR), CF (R&D Systems Cat#391-GR) (human) (UniProt P08069); test: Multispot ECL (MSD), antigen spotted on plate, Fab […]; blank spot 359
[11] = target: rHuman IGF-1 sR, (IGF-1 sR), CF (R&D Systems Cat#391-GR) (human) (UniProt P08069); test: Multispot ECL (MSD), antigen spotted on plate, Fab […]; blank spot 376
[12] = target: rHuman IGF-1 sR, (IGF-1 sR), CF (R&D Systems Cat#391-GR) (human) (UniProt P08069); test: Multispot ECL (MSD), antigen spotted on plate, Fab 210 nM; blank spot 833
[13] = target: rHuman IGF-1 sR, (IGF-1 sR), CF (R&D Systems Cat#391-GR) (human) (UniProt P08069); test: Multispot ECL (MSD), antigen spotted on plate, Fab 52.5 nM; blank spot 467
[14] = target: Recombinant Human DLL4 (R&D Systems Cat#1506-D4/CF) (human) (UniProt Q9NR61); test: Multispot ECL (MSD), antigen spotted on plate, Fab 12 nM; blank spot 573
[15] = target: rHuman ErbB2/Fc Chimera, CF (R&D Systems Cat#1129-ER) (human) (UniProt P04626); test: as above
[16] = target: rHuman HGF R/c-MET/Fc Chimera, CF (R&D Systems Cat#358-MT/CF) (human) (UniProt P08581); test: as above
[17] = target: rHuman Notch-1/Fc Chimera, CF (R&D Systems Cat#3647-TK) (human) (UniProt P46531); test: as above
[18] = target: Recombinant Human DLL4 (R&D Systems Cat#1506-D4/CF) (human) (UniProt Q9NR61); test: Multispot ECL (MSD), antigen spotted on plate, Fab 1.2 nM; blank spot 227
[19] = target: rHuman ErbB2/Fc Chimera, CF (R&D Systems Cat#1129-ER) (human) (UniProt P04626); test: as above
[20] = target: rHuman HGF R/c-MET/Fc Chimera, CF (R&D Systems Cat#358-MT/CF) (human) (UniProt P08581); test: as above
[21] = target: rHuman Notch-1/Fc Chimera, CF (R&D Systems Cat#3647-TK) (human) (UniProt P46531); test: as above
[22] = target: Recombinant Human DLL4 (R&D Systems Cat#1506-D4/CF) (human) (UniProt Q9NR61); test: Multispot ECL (MSD), antigen spotted on plate, Fab 0.12 nM; blank spot 264
[23] = target: rHuman ErbB2/Fc Chimera, CF (R&D Systems Cat#1129-ER) (human) (UniProt P04626); test: as above
[24] = target: rHuman HGF R/c-MET/Fc Chimera, CF (R&D Systems Cat#358-MT/CF) (human) (UniProt P08581); test: as above
[25] = target: rHuman Notch-1/Fc Chimera, CF (R&D Systems Cat#3647-TK) (human) (UniProt P46531); test: as above
[26] = target: Recombinant Human DLL4 (R&D Systems Cat#1506-D4/CF) (human) (UniProt Q9NR61); test: Multispot ECL (MSD), antigen spotted on plate, Fab 120 nM; blank spot 6749
[27] = target: rHuman ErbB2/Fc Chimera, CF (R&D Systems Cat#1129-ER) (human) (UniProt P04626); test: as above
[28] = target: rHuman HGF R/c-MET/Fc Chimera, CF (R&D Systems Cat#358-MT/CF) (human) (UniProt P08581); test: as above
[29] = target: rHuman Notch-1/Fc Chimera, CF (R&D Systems Cat#3647-TK) (human) (UniProt P46531); test: as above
[30] = target: Recombinant Human DLL4 (R&D Systems Cat#1506-D4/CF) (human) (UniProt Q9NR61); test: ECL multispot (MSD), antigen spotted, Fab in solution
[31] = target: rHuman CD44/Fc Chimera, CF (R&D Systems Cat#3660-CD) (human) (UniProt P16070); test: as above
[32] = target: rHuman EGF R/Fc Chimera, CF (R&D Systems Cat#344-ER) (human) (UniProt P00533); test: as above
[33] = target: rHuman Erythropoietin R/Fc Chimera, CF (R&D Systems Cat#963-ER) (human) (UniProt P19235); test: as above
[34] = target: rHuman HGF R/c-MET/Fc Chimera, CF (R&D Systems Cat#358-MT/CF) (human) (UniProt P08581); test: as above
[35] = target: rHuman IGF-1 sR, CF (R&D Systems Cat#391-GR) (human) (UniProt P08069); test: as above
[36] = target: rHuman Notch-1/Fc Chimera, CF (R&D Systems Cat#3647-TK) (human) (UniProt P46531); test: as above
[37] = target: rHuman P-Cadherin/Fc Chimera, CF (R&D Systems Cat#861-PC) (human) (UniProt P22223); test: as above
[38] = target: rHuman Notch-1/Fc Chimera, CF (R&D Systems Cat#3647-TK) (human) (UniProt P46531); test: ECL Multispot (MSD) assay, antigen spotted on plate, 10 nM Fab
[39] = target: rHuman CD44/Fc Chimera, CF (R&D Systems Cat#3660-CD) (human) (UniProt P16070); test: ECL multispot (MSD) binding assay; antigen spotted on plate, Fab in solution, Ru-labelled anti-kappa detection
[40] = target: rHuman ErbB2/Fc Chimera, CF (R&D Systems Cat#1129-ER) (human) (UniProt P04626); test: as above
[41] = target: rHuman Erythropoietin R/Fc Chimera, CF (R&D Systems Cat#963-ER) (human) (UniProt P19235); test: as above
[42] = target: rHuman Notch-1/Fc Chimera, CF (R&D Systems Cat#3647-TK) (human) (UniProt P46531); test: as above

Substance: Fab VH3-23_IGHD2-21*01>3_IGHJ6*01 H100E/S108P K65A & V2-13_IGLJ2*01
ECL signal/blank ratio (read-out not given) [2]: 1.7 | ECL signal/blank ratio (read-out not given) [3]: 7.1 | ECL signal/blank ratio (read-out not given) [4]: 1.4 | ECL signal/blank ratio (read-out not given) [5]: 3

Substance: Fab VH3-23_IGHD2-21*01>3_IGHJ6*01 H100E/S108P/Y113G Y114H & V2-13_IGLJ2*01
ECL multispot value [1]: 3.3

Substance: Fab VH1-46_IGHD6-6*01_IGHJ1*01 S102A/S103P/S104F/H111F & L6_IGKJ1*01
ECL signal [7]: 438

Substance: Fab VH3-23_IGHD3-10*01>1′_IGHJ3*01 & O12_IGKJ1*01
ECL signal [8]: 759 | ECL signal [9]: 1300

Substance: Fab VH4-31_IGHD2-15*01_IGHJ2*01 & V1-4_IGLJ4*01
ECL signal at 3.3 nM Fab [10]: 743 | ECL signal at 13.1 nM Fab [11]: 814 | ECL signal at 210 nM Fab [12]: 1430 | ECL signal at 52.5 nM Fab [13]: 911

Substance: Fab VH3-23_IGHD3-10*01>3_IGHJ6*01 & O12_IGKJ1*01
ECL signal [14]: 2510 | ECL signal [15]: 4360 | ECL signal [16]: 2700 | ECL signal [17]: 2580 | ECL signal [18]: 319 | ECL signal [19]: 677 | ECL signal [20]: 412 | ECL signal [21]: 660 | ECL signal [22]: 210 | ECL signal [23]: 287 | ECL signal [24]: 287 | ECL signal [25]: 218 | ECL signal [26]: 20600 | ECL signal [27]: 17300 | ECL signal [28]: 15900 | ECL signal [29]: 14400

Substance: Fab VH3-23_IGHD3-10*01>3_IGHJ6*01 Y115G & O12_IGKJ1*01
ECL multispot value (looks like signal/blank ratio; not labelled) [6]: 2.7

Substance: Fab VH3-23_IGHD3-10*01>3_IGHJ6*01 Y112Q & O12_IGKJ1*01
ECL signal/blank ratio [30]: 1.8 | ECL signal/blank ratio [31]: 1.4 | ECL signal/blank ratio [32]: 1.2 | ECL signal/blank ratio [33]: 2.4 | ECL signal/blank ratio [34]: 1.4 | ECL signal/blank ratio [35]: 1.6 | ECL signal/blank ratio [36]: 1.7 | ECL signal/blank ratio [37]: 3

Other lines, results leading:

ECL multispot value [1]: 3.3
Substance: Fab VH3-23_IGHD2-21*01>3_IGHJ6*01 H100E/S108P/Y113G Y114E & V2-13_IGLJ2*01

ECL multispot value (looks like signal/blank ratio; not labelled) [6]: 2.7
Substance: Fab VH3-23_IGHD3-10*01>3_IGHJ6*01 R104A & O12_IGKJ1*01

ECL signal [38]: 374 | ECL signal [39]: 978 | ECL signal [40]: 1290 | ECL signal [41]: 1060 | ECL signal [42]: 6090
Substance: Fab VH1-46_IGHD6-6*01_IGHJ1*01 S102A/S103P/S104F/H111F F29A & L6_IGKJ1*01
